Results reported in patent US5574007A, “Polypeptide capable of interacting with thrombin” (Asahi Kasei Kogyo Kabushiki Kaisha, priority 1990, dated 1996).

Columns and labels:
[1] = target: T1, thrombin-catalyzed activation of protein C (Homo sapiens, UniProt P00734); test: Activity to promote the activation of protein C (Example 9-(4)); type: biochemical
T1 construct: are added 50 μg/ml protein C, 5 nM thrombin and 5 nM of each of the purified polypeptides
Experimental: With respect to the polypeptide purified in Example 9-(3), the activity to promote the activation of protein C is measured according to the following method. That is, 10 μl of a peptide solution (10 nM), 10 μl of thrombin (15 nM), 10 μl of protein C (3.2 μM), 10 μl of 10×Assay buffer [0.5M Tris HCl (pH 7.5) containing 1% BSA, 1M NaCl and 20 mM CaCl2 ] and 60 μl of distilled water are mixed together. The mixture is reacted at 37° C. for one hour, and antithrombin III and hepalin are added at final concentrations of 100 nM and lu/ml, respectively, thereby stopping the reaction. To measure the concentration of activated protein C, the concentration of AMC ([…]) liberated from a 200 μM substrate of Boc-Leu-Ser-Thr-Arg-MCA in a buffer containing 0.05M Tris HCl (pH 8.0) and 0.1M CsCl is measured at an excitation wavelength of 380 nm and a measuring wavelength of 440 nm.

[2] = target: thrombin (Homo sapiens, UniProt P00734); test: Capability of binding to thrombin of thrombomodulin deletion polypeptides; conditions: expressed in COS-1 cells, purified
[3] = target: T2, thrombin-catalyzed conversion of fibrinogen to fibrin (Homo sapiens, UniProt P00734); test: Anticoagulating activity: clotting time of a fibrinogen solution; type: biochemical; conditions: 0 to 50 nM polypeptide, 10 nM thrombin; polypeptide from COS-1 or CHO cells
T2 construct: Then, 10 nM thrombin is added to the mixture
Experimental: The activity of each of the polypeptides of the present invention to inhibit the thrombin-catalyzed conversion of fibrinogen to fibrin so as to inhibit blood coagulation, is determined by measuring clotting time using Coagulometer KC-10A (manufactured and sold by Heinrich Amelung A.G., Germany). Illustratively stated, to 0.05M Tris-HCl buffer (pH 7.5) containing 5 mM CaCl2 and 0.1M NaCl is added 3.0 μg of fibrinogen (Fraction I, manufactured and sold by Sigma Chemical Company, U.S.A.). To the resultant mixture is added 0 to 50 nM of each of the purified polypeptides of the present invention. Then, 10 nM thrombin is added to the mixture in such an amount that the total amount of the mixture becomes 0.4 ml, and then the coagulation time of the mixture is measured.

[4] = test system: thrombin-catalyzed platelet aggregation; test: Platelet aggregation-inhibiting activity (Platelet Rich Plasma, HEMA TRACER IV); type: cell-based; conditions: polypeptide in molar amount equal to or more than thrombin; polypeptide from COS-1 or CHO cells
Experimental: The activity of each of the polypeptides of the present invention to inhibit the thrombin-catalyzed platelet aggregation is evaluated using platelet aggregation measuring apparatus HEMA TRACER IV (manufactured and sold by NIKO Bioscience, Inc., Japan). Measurement is carried out according to the manual attached thereto. When 40 μl of a 20 NIH unit/ml thrombin solution (manufactured and sold by SIGMA Chemical Co., U.S.A., T 6759) is added to 180 μl of a Platelet Rich Plasma (PRP) platelet solution (3×10^5 cells/μl) and incubated, the aggregation of platelets occurs. […] The aggregation of platelets is determined on the basis of the transparency, assuming the transparency of Platelet Poor Plasma (PPP) solution as 100%. The ratio of platelet aggregation is plotted against the incubation time (0 min: the time when thrombin or a mixture of thrombin and one of the polypeptides is added to the PRP solution). It is confirmed that the platelet aggregation is inhibited when one of the polypeptides of the present invention is added.

[5] = target: T1, thrombin-catalyzed activation of protein C; test: Activated protein C formation against reaction time with purified polypeptide (Example 4-(6)); type: biochemical
Experimental: To 0.02M Tris-HCl buffer (pH 8.5) containing 0.1M NaCl, 0.5 mM CaCl2 and 10 mg/ml BSA are added 50 μg/ml protein C, 5 nM thrombin and 5 nM of each of the purified polypeptides of the present invention, and reacted at 37° C. To each of the reaction mixtures are added 300 μg/ml antithrombin III (manufactured and sold by Sigma Chemical Company, U.S.A.) and 5 mM EDTA to terminate the reaction. Then, the amount of the activated protein C produced by the reaction is determined by the method described in Example 1-(3) in which a synthetic substrate is used.

B1: E45: polypeptide of the 367th to 442nd amino acid residues of human thrombomodulin (pSV2TMD9) (protein)
chain: DPCFRANCEYQCQPLNQTSYLCVCAEGFAPIPHEPHRCQMFCNQTACPADCDPNTQASCECPEGYILDDGFICTDI
[1]
  activity relative to that of the 114-amino acid polypeptide: about one-tenth
[1]; peptide solution 10 nM, thrombin 15 nM, protein C 3.2 μM, 37° C., one hour
  production of activated protein C: 1.7 pmol

B2: polypeptide comprised of the 366th to 442nd amino acid residues of human thrombomodulin: deletion polypeptide expressed in COS-1 cells using vector pSV2 (protein)
chain: VDPCFRANCEYQCQPLNQTSYLCVCAEGFAPIPHEPHRCQMFCNQTACPADCDPNTQASCECPEGYILDDGFICTDI
[2]
  capability of binding to thrombin (in words): had the capability of binding to thrombin

B3: polypeptide comprised of the 407th to 480th amino acid residues of human thrombomodulin: deletion polypeptide expressed in COS-1 cells using vector pSV2 (protein)
chain: FCNQTACPADCDPNTQASCECPEGYILDDGFICTDIDECENGGFCSGVCHNLPGTFECICGPDSALVRHIGTDC
[2]
  capability of binding to thrombin (in words): had the capability of binding to thrombin

B4: E456GlaAsp: polypeptide from PTTM2 CHO cells transfected with pSV2PTTMM6 (prothrombin leader), gamma-carboxyglutamic acid confirmed (protein)
chain: PVEDPCFRANCEYQCQPLNQTSYLCVCAEGFAPIPHEPHRCQMFCNQTACPADCDPNTQASCECPEGYILDDGFICTDIDECENGGFCSGVCHNLPGTFECICGPDSALVRHIGTDC
modifications: gamma-carboxyglutamic acid (Gla) in place of the Glu inserted before Asp367 (third residue of the purified polypeptide, where Edman degradation detected no amino acid); Gla confirmed by amino acid anal
[3]
  clotting time of fibrinogen solution against amount of polypeptide (in words): the longer the clotting time
[4]
  thrombin-catalyzed platelet aggregation (in words): inhibited
[5]; 5 nM polypeptide, 5 nM thrombin, 50 μg/ml protein C, 37° C., polypeptide from COS-1 or CHO cells
  amount of activated protein C with reaction time (in words): increased with the lapse of reaction time
[5]; 30 min after the polypeptide addition
  amount of protein C activated, larger than in the presence of E456Glu: 80%
